Experimental data from US7910549 (INSTITUTE OF VIROLOGY OF THE SLOVAK ACADEMY OF SCIENCES, dated 2011).
Where no end group is shown, it is not given here.

B1: nonapeptide ASASAPVSA [SEQ ID NO: 139] (peptide)
peptide: ASASAPVSA-NH2
notes: Synthetic; phage-selected heptapeptide with alanine added on both sides
B2: nonapeptide AKKMKRRKA [SEQ ID NO: 137] (peptide)
peptide: AKKMKRRKA-NH2
notes: as for B1
B3: oligopeptide … (aa 75-98) [SEQ ID NO: 106] (peptide)
peptide: EDPPGEEDLPGEEDLPGEEDLPEV
B4: nonapeptide AITFNAQYA [SEQ ID NO: 138] (peptide)
peptide: AITFNAQYA-NH2
notes: as for B1

What was measured:
[1] = biological target: B3; test: phage display (Ph.D.-7): panning on immobilized peptide SEQ ID NO: 106, elution with M75, 5 cycles
[2] = biological target: T1, GST-MN fusion protein (MN glutathione S-transferase), expressed in bacteria from pGEX-3X-MN (human, UniProt Q16790 38-459); test: competition ELISA on immobilized GST-MN; competitor M75
[3] = biological target: T1, GST-MN fusion protein (MN glutathione …); test: phage display (Ph.D.-7): panning on wells coated with GST-MN, elution by acetazolamide, 3 rounds
[4] = biological target: T2, monoclonal antibody M75 (MAb M75), secreted by hybridoma VU-M75, ATCC HB 11128; test: competition ELISA (peptide against immobilized GST-MN for M75)
T2 construct: Mouse IgG; used as ascites fluid in the ELISA and in the cell adhesion tests; also called MAb 75

[5] = biological target: T1, GST-MN fusion protein (MN glutathione …); test: phage display panning on GST-MN, elution with acetazolamide

| Binder | binding result [1] | binding result [2] | other results |
| --- | --- | --- | --- |
| KKMKRRK | binds | – | – |
| B1 | – | binds | – |
| ITFNAQY | binds | – | – |
| B2 | – | binds | – |
| GETRAPL [phage-displayed heptapeptide GETRAPL (SEQ ID NO: 107)] | – | – | binding result [3]: binds |
| GETREPL [phage-displayed heptapeptide GETREPL (SEQ ID NO: 108)] | – | – | binding result [3]: binds |
| B3 | – | – | IC50 [4]: 1 ng/mL |
| SASAPVS | binds | – | – |
| B4 | – | binds | – |
| GQTRSPL [phage-displayed heptapeptide GQTRSPL (SEQ ID NO: 109)] | – | – | binding result [5]: binds |
